Reference: patent US20140127139A1 (GUERBET, published 2014)
No end group written: not given here.

Assays:
[1] = target: T1, native MUC5AC secreted by HT29-5M21 human colonic adenocarcinoma cells (human, UniProt P98088 28-5654, O-glycosylated mucin); assay: cell ELISA on HT29 5M21 cells secreting MUC5AC, biotinylated peptide, OD 405 nm; apparent Kd
T1 construct: whole, on cells; A secreted mucin on the cell layer, not a membrane protein; also called MUC5AC cells; MUC5AC directly after secretion on secretory human adenocarcinoma cells
Method: The affinity of the peptide for MUC5AC is calculated from a functional cell assay which consists in measuring the binding of the peptide on a cell model secreting MUC5AC. After 21 days of culture for HT29-5M21 cells and 7 days for HCT116 cells, the cells are rinsed with PBS at 4° C., and then fixed with 1% glutaraldehyde diluted in PBS. The cells are then rinsed again 3 times with PBS at 4° C. and incubated for 2H at ambient temperature with a milk-enriched buffer and for 2H at 37° C. in a concentration range of between 10⁻³M and 10⁻⁶M of biotinylated peptides. The biotinylated peptides bound to the target are visualized using goat anti-biotin antibodies incubated for one hour at ambient temperature (diluted in PBS to 1 μg/ml). A second incubation for one hour at ambient temperature is carried out in the presence of peroxidase-labeled anti-goat antibodies at 0.2 μg/ml, diluted in PBS supplemented with 0.1% of Tween-20. The peroxidase coloration reaction is carried out in the presence of ABTS and the OD measurement is carried out at 405 nm. The cell assay has the advantage of showing affinity data, although its sensitivity can still be improved. The secretion of MUC5AC was indeed verified in the study. The results on human tissues (affinity curve for human MUC5AC also obtained) give very positive results. […]

[2] = target: T2, mouse MUC5AC glycoprotein purified from mouse stomach (mouse); assay: ELISA; MUC5AC purified from mouse stomach immobilized, biotinylated peptide; apparent Kd
T2 construct: Native glycoprotein purified from tissue; Also used here as the target for the in vivo mouse stomach signal (MUC5AC in situ); also called murine (mouse) gastric MUC5AC
Method: (§1) The interaction between the peptide and MUC5AC is evaluated by means of an ELISA assay. The mucin MUC5AC (purified from pieces of human tumor on the basis of mucin extraction and purification protocols described in literature) is immobilized on a plate at the concentration of 12.5 μg/ml overnight at 4° C. The nonspecific sites are then saturated in a buffer enriched with milk, for 2 hours at 4° C. After several rinses, the peptide […] coupled to biotin is incubated at increasing concentrations (10⁻³M and 10⁻⁶M) for 2 hours at 37° C. The biotinylated peptides bound to MUC5AC are visualized using goat anti-biotin antibodies incubated for one hour at ambient temperature and then diluted in PBS at 1 μg/ml. After removal of the unbound antibodies, a second incubation for one hour at ambient temperature is carried out in the presence of peroxidase-labeled anti-goat antibodies at 0.2 μg/ml, diluted in PBS supplemented with 0.1% of Tween-20. The peroxidase coloration reaction is carried out in the presence of H₂O₂-enriched ABTS. The measurement of the OD at 405 nm makes it possible to calculate the K*d MUC5AC value.
(§2) The interaction between the peptide and MUC5AC is also evaluated by means of the previously described ELISA assay on the mucin MUC5AC purified beforehand from mouse and rat stomach.

MUC2 glycoprotein = target: T3, MUC2 glycoprotein (human, UniProt Q02817 21-5289, limits assumed, O-glycosylated mucin); assay: histological labelling of human colonic adenoma sections with biotinylated peptide, compared with anti-MUC2 antibody labelling
T3 construct: Present in situ in fixed, paraffin-embedded tissue sections; also called major mucin of the intestine
Method: Sections of healthy gastric and colonic mucosae and of human colorectal adenoma (5 μm thick) were fixed for 24 h with 4% paraformaldehyde and embedded in paraffin. For the labeling, the sections were first of all deparaffinized in toluene and rehydrateted in 95% alcohol. After rinsing in water, the slides are brought to boiling for 10 minutes in a citrate buffer (50 mM, pH 4). Once the temperature of the buffer has returned to 25-30° C., the slides are then rinsed with PBS and then successively incubated for 15 minutes in a 0.15% hydrogen peroxide (H₂O₂) solution and a kit for blocking the endogenous biotin for 1 h. The sections are then blocked using a milk-enriched buffer for 1 h at ambient temperature, and are then incubated at 4° C. for 18 h with the peptides at various concentrations (20 μM, 10 μM, 1 μM, 0.2 μM, 0.04 μM) or the antibodies (MUC5AC: PM8 at a 1/100 dilution and MUC2: Lum2-3 at a 1/100 dilution) diluted in PBS. The biotinylated peptides bound to the target are visualized using goat anti-biotin antibodies incubated for one hour at ambient temperature and then diluted in PBS at 1 μg/ml. A second incubation for one hour at ambient temperature is carried out in the presence of peroxidase-labeled anti-goat antibodies at 0.2 μg/ml diluted in PBS supplemented with 0.1% of Tween-20. […]

[3] = target: T4, rat MUC5AC glycoprotein purified from rat stomach (rat); assay: ELISA; MUC5AC purified from rat stomach immobilized, biotinylated peptide; apparent Kd
T4 construct: Native glycoprotein purified from tissue; also called murine (rat) gastric MUC5AC
Method: as §1, §2

[4] = target: T5, human MUC5AC mucin purified from pieces of human tumor (human, UniProt P98088 28-5654, limits assumed, O-glycosylated mucin); assay: ELISA; purified human MUC5AC immobilized, biotinylated peptide at increasing concentrations, OD 405 nm; apparent Kd
T5 construct: Native glycoprotein purified from tissue and immobilized on an ELISA plate at 12.5 ug/ml; Also used here as the target for labelling of human tissue sections (MUC5AC in situ); also called human colonic MUC5AC; purified MUC5AC
Method: as §1

B1: peptide CPSIYPLLC (SEQ ID No. 2) coupled to biotin (peptide)
peptide: CPSIYPLLC
modifications: also: biotin coupled, site not given here, cyclic, closure type not given here
notes: The chemistry of the biotin coupling is not described; also called Cyclic C60
[1]
  Kd: 48 µM
[2]
  Kd: 549 µM
MUC2 glycoprotein
  binding result: no binding
[3]
  Kd: 659 µM
[4]
  Kd: 85 µM
